{
  "source": "paper PMC6719960",
  "origin": "cited, not measured here",
  "molecular_target": "claudin-4 (UniProt O14493)",
  "sequence (O14493 whole entry, the tested form may be a part)": "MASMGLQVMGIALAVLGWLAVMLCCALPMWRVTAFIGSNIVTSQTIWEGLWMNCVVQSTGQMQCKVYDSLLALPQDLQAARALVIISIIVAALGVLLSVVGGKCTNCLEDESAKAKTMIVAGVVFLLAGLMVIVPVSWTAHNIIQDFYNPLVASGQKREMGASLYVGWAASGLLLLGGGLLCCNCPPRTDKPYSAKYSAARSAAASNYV",
  "data": [
    {"substance": "C-CPE C-terminal fragment (from UniProt P01558)", "values": [
      {"measurement": "Kd", "value": 0.5, "unit": "nM"}
    ]}
  ]
}
